Reference: patent publication US20060246519A1, “MONOMERIC STREPTAVIDIN MUTEINS” (priority 2005, published 2006)

Legend:
[1] = Degree of monomerization of non-boiled samples in SDS-PAGE / Western blot; format: physicochemical
Protocol: FIG. 3: Western blot analysis of cell culture supernatants from B. subtilis strains producing streptavidin muteins carrying a single mutation. 15 μl of non-boiled sample of culture supernatant was loaded to each lane. Samples on the left set were collected from B. subtilis strains cultured in super-rich medium without additional supplement of biotin. Samples on the right set were collected from B. subtilis strains cultured in super-rich medium with additional supplementation of biotin (20 μM). The blot was probed with polyclonal antibodies against streptavidin and developed using 4-chloro-1-napthol (Bio-Rad) as the colour development agent. […] M, molecular weight markers; wt, wild type streptavidin.
FIG. 4: Analysis of culture supernatants from B. subtilis strains producing streptavidin muteins carrying different combinations of mutations. All these strains were cultivated in super-rich medium supplemented with biotin (20 μM). The 15 μl of non-boiled samples of culture supernatants were loaded. FIG. 4A. Coomassie blue stained SDS-polyacrylamide gel. Bands corresponding to tetrameric and monomeric streptavidin are marked by an asterisk and an arrowhead, respectively. FIG. 4B. Western blot probed with polyclonal antibodies against streptavidin. M, molecular weight markers; wt, wild type streptavidin; AK, mutein (D61A, W 120K); M1, mutein (T76R); M2, mutein (T76R, V125R); M4, mutein (T76R, V125R, V55T, L109T); C, negative control.
Streptavidin muteins carrying a single amino-acid change at the selected site may be produced in their soluble form by B. subtilis via secretion. Analysis of non-boiled culture supernatants by SDS-PAGE offers a quick screen for the mutation effect (Qureshi, 2001). Weaker subunit interaction would result in a higher percentage of the sample in the monomeric state on the SDS-polyacrylamide gel. Since biotin can strengthen subunit interaction, samples were analyzed in the presence or absence of biotin (Laitinen, 2001; Gonzalez, 1999).
In single mutation muteins, the impact of the mutation on weakening of the subunit interaction followed the order T76R>V125R>[…]≈V55R>V55T (FIG. 3 and Table 4). The T76R mutein (referred to herein as M1) existed 100% in the monomeric state on the SDS-polyacrylamide gel even in the presence of biotin. In contrast, V55T mutation had the lowest impact, with the majority of molecules in the tetrameric state even in the absence of added biotin. Presence of biotin shifts the majority of the three remaining muteins (V125R, V125T and V55R) to the tetrameric state. Changing valine to arginine exerted greater impact than changing it to threonine. This is true for both Val-125 and Val-55.

[2] = Apparent molecular mass by gel filtration (Bio-Prep SE 100/17); format: physicochemical
Description: FIG. 6: Gel filtration profiles of streptavidin muteins. FIG. 6A. […] Bovine gamma-globulin (158 kDa), bovine serum albumin (66 kDa), ovalbumin (44 kDa), myoglobin (17 kDa) and vitamin B-12 (1.35 kDa) were used as molecular mass markers (closed circles) to calibrate the column. The logarithm of molecular mass was plotted versus Kav (Kav=(Ve−Vo)/(Vt−Vo); Ve, elution volume; Vo, void volume; Vt, bed volume). Positions of wild-type streptavidin (wt) and streptavidin muteins are represented by solid squares. FIG. 6B. Elution profile of M4 mutein (loaded at 2 mg/ml) on the gel filtration column.
(§1) Molecular mass of purified streptavidin and its muteins was estimated by both gel filtration and dynamic light scattering studies. Gel filtration was performed on the Bio-Rad biologic workstation equipped with a Bio-Prep SE 100/17 column that had been calibrated with molecular mass protein markers (Bio-Rad). Molecular mass was also estimated from the hydrodynamic radius of the mutein obtained using a DynaPro MS dynamic light scattering instrument (Protein Solutions, USA) that had been calibrated with lysozyme. Protein samples (2-3 mg/ml in PBS) were passed through a 0.02 μm filter (Whatman Anodisc 13) immediately prior to measurement. The size distribution profile was analyzed using the manufacturer's Dynamics V6 software.

[3] = Dynamic light scattering (hydrodynamic radius, estimated molecular mass); format: physicochemical; details: for M (kDa) (Dynamic light scattering): calculated from measured RH using a protein calibration curve
Protocol: as §1

[4] = tested on: proteinase K; assay: Proteinase K digestion of streptavidin and its muteins; format: biochemical
Protocol: Purified streptavidin and its muteins (30 μM monomer) were treated with proteinase K (Invitrogen, 5 μM) for 15 min at 30° C. in 50 mM Tris-HCl containing 5 mM CaCl2, pH 8.0. The reaction was stopped by precipitation with trichloroacetic acid (Ellison, 1995). Boiled samples of precipitated proteins were resolved by reducing SDS-PAGE. The same analysis was performed with streptavidin samples treated with biotin (1 mM final concentration) prior to proteinase K digestion.

[5] = Cross-linking reactions with sulfo-EGS; format: physicochemical; details: 10-fold molar excess sulfo-EGS, 30 min, room temperature
Protocol: Cross-linking of streptavidin and its muteins was carried out using sulfo-EGS [ethylene glycolbis(sulfosuccinimidyl succinate)] (Pierce) as the cross-linker. A typical reaction mixture (20 μl) contained the purified mutein (0.2 5 mg/ml) and sulfo-EGS (10-fold molar excess over the protein) in PBS. After 30 min at room temperature, the reaction was quenched with Tris-HCl (30 mM, pH 7.5). Aliquots of the cross-linking reaction samples were boiled and examined by SDS-PAGE. Lysozyme (Sigma, 0.25 mg/ml) was included in the study to help establish the optimal reaction conditions.

[6] = tested on: Biotin-conjugated bovine serum albumin; assay: Kinetic analysis by surface plasmon resonance BIAcoreX biosensor; format: binding; details: interaction with biotin
Protocol: FIG. 8: Kinetic parameters for the interaction between M4 streptavidin mutein and biotin as monitored by BIAcore biosensor. A. On-rate (ka) determination. ka is derived from association analysis. kd is the slope of the plot of In(Ro/Rt) versus (t−to) where Ro is the response at an arbitrary starting time to; Rt is the response at time t.
The kinetic parameters (both on- and off-rates for interaction with biotin) of streptavidin muteins were determined in real time using the surface plasmon resonance based BIAcoreX biosensor. Biotin-conjugated bovine serum albumin immobilized on CM5 sensor chip was used to study the reversibility of biotin binding (Qureshi, 2001).

[7] = independent of the presence or absence of biotin, 5 μM proteinase K, 15 min, 30° C.

Row | Substance | Monomer (percentage of streptavidin in monomeric state) ([1]; No additional biotin) [%] | Monomer (percentage of streptavidin in monomeric state) ([1]; With additional biotin (20 μM)) [%] | M (kDa) (Gel filtration) ([2]; no biotin) | RH (nm) (Dynamic light scattering) ([3]; no biotin) | M (kDa) (Dynamic light scattering) ([3]; no biotin) | Oligomeric state after cross-linking with sulfo-EGS (SDS-PAGE) [5] | further results
1 | AK: prior art streptavidin mutein carrying double mutations D61A, W120K [reference compound] | 100 | 100 | 45.66 | 3.20 ± 0.23 | 50 | cross-linking profile very similar to that of the wild type streptavidin | M (kDa) (Gel filtration) ([2]; +biotin): 50.12 kDa; RH (nm) (Dynamic light scattering) ([3]; +biotin): 3.54 ± 0.38 nm; M (kDa) (Dynamic light scattering) ([3]; +biotin): 63 kDa; Susceptibility to proteinase K digestion ([4]; absence of biotin): most of it was digested; Susceptibility to proteinase K digestion ([4]; biotin present (1 mM)): much more resistant; ka, on-rate [6]: 1.46 ± 0.05 × 10^4 M^−1s^−1; kd, off-rate [6]: 3.59 ± 0.03 × 10^−3 s^−1
2 | M1: streptavidin mutein carrying the single mutation T76R | 100 | 100 | – | – | – | – | –
3 | M2: streptavidin double mutant carrying T76R and V125R mutations | 100 | 100 | 19.95 | 1.98 ± 0.24 | 17 | migrated as monomers | M (kDa) (Gel filtration) ([2]; +biotin): 23.44 kDa; RH (nm) (Dynamic light scattering) ([3]; +biotin): 2.09 ± 0.29 nm; M (kDa) (Dynamic light scattering) ([3]; +biotin): 18 kDa; Susceptibility to proteinase K digestion [4, 7]: completely digested; ka, on-rate [6]: 1.88 ± 0.07 × 10^4 M^−1s^−1; kd, off-rate [6]: 3.22 ± 0.01 × 10^−3 s^−1
4 | V55R: streptavidin mutein carrying the single mutation V55R | 20 | 10 | – | – | – | – | –
5 | V55T: streptavidin mutein carrying the single mutation V55T | 1 | 0 | – | – | – | – | –
6 | V125R: streptavidin mutein carrying the single mutation V125R | 92 | 12 | – | – | – | – | –
7 | V125T: streptavidin mutein carrying the single mutation V125T | 25 | 0 | – | – | – | – | –
8 | Wt: wild-type streptavidin produced by B. subtilis WB800 [reference compound] | – | – | 56.23 | 3.69 ± 0.19 | 69 | most of these subunits were cross-linked to dimers and higher oligomers | M (kDa) (Gel filtration) ([2]; no biotin, listed as wild-type streptavidin): 56 kDa; Susceptibility to proteinase K digestion [4, 7]: converted to the core form
